B1: CPEB3 Ribozyme (parent)
chain: GGGGGCCACAGCAGAAGCGUUCACGUCGCGGCCCCUGUCAGAUUCUGGUGAAUCUGCGAAUUCUGCUGU

Variants of B1 are the subject of this data set. Put plainly: self-cleavage, relative activity (ratio to wild type); higher = more cleavage; co-transcriptional.
Regarding A10C U36G, the self-cleavage came out at 0.246.

Turning to A10C U36A, the self-cleavage is 0.226.

For C9U A52G, the self-cleavage is 0.673.

Turning to A10C U62A, the self-cleavage came out at 0.926.

For A10U C22A, the self-cleavage worked out at 0.208.

With A10U G25A, the self-cleavage was found to be 0.171.

For C9U G41C, the self-cleavage stood at 0.949.

Consider C9U G41U, for which the self-cleavage is 0.974.

A10G G65U: the self-cleavage was determined as 0.303.

A10G G65A: the self-cleavage amounted to 0.337.

In the case of C9U G65A, the self-cleavage stood at 0.965.

For A10U G68U, the self-cleavage is 0.982.

Consider A10U G68A, for which the self-cleavage came to 1.05.

In the case of A10U U69G, the self-cleavage turned out to be 1.06.

For the variant A10U U69C, the self-cleavage is 1.07.

In the case of A10U G37C, the self-cleavage was 0.3.

For A10G U64G, the self-cleavage turned out to be 0.398.

In the case of A10G A59G, the self-cleavage was 0.925.

Regarding A10C G11C, the self-cleavage is 0.764.

Consider G11A C63U, for which the self-cleavage worked out at 0.707.

Turning to A10G U53A, the self-cleavage was found to be 0.651.

As for A10G U53C, the self-cleavage turned out to be 0.333.

For C9U A16G, the self-cleavage is 0.956.

In the case of C9U A16U, the self-cleavage turned out to be 0.864.

In the case of A10G G25A, the self-cleavage turned out to be 0.0673.

As for A10G G25U, the self-cleavage was 0.132.

For G11A U44A, the self-cleavage was 0.697.

As for A10U A40G, the self-cleavage stood at 0.951.

With C9U G14U, the self-cleavage is 0.898.

Take C9U G14C: the self-cleavage came out at 0.747.

As to A10C U46C, the self-cleavage turned out to be 0.98.

As for A10C C34G, the self-cleavage was determined as 0.868.

As for A10C U43G, the self-cleavage amounted to 0.808.

On to A10C U43A, for which the self-cleavage stood at 0.892.

As to A10C U43C, the self-cleavage was found to be 0.965.

In the case of A10C U55G, the self-cleavage was found to be 0.799.

For the variant A10C C39U, the self-cleavage is 0.877.

As to A10C A59G, the self-cleavage was 1.

Consider A10C A59C, for which the self-cleavage was found to be 0.832.

As to A10U C57A, the self-cleavage was determined as 0.273.

In the case of A10G C32A, the self-cleavage came out at 0.847.

Take A10G C32U: the self-cleavage came to 0.939.

On to C9U G50A, for which the self-cleavage came to 1.02.

Regarding A10U A13G, the self-cleavage stood at 0.56.

As for A10U A13U, the self-cleavage turned out to be 0.701.

With G11A U43A, the self-cleavage turned out to be 0.442.

As to G11A U43C, the self-cleavage stood at 0.658.

As to G11A U43G, the self-cleavage is 0.4.

For the variant A10G U26A, the self-cleavage amounted to 0.933.

On to A10G U26C, for which the self-cleavage worked out at 0.351.

For A10G U26G, the self-cleavage stood at 0.877.

Take C9U U43G: the self-cleavage is 0.967.

For the variant A10U G17A, the self-cleavage was 0.547.

For A10G A42C, the self-cleavage is 0.668.

Turning to C9U C57G, the self-cleavage stood at 0.334.

A10U U36G: the self-cleavage was 0.195.

For A10U U36C, the self-cleavage is 0.924.

For A10U C12U, the self-cleavage came to 0.913.

In the case of A10U C12A, the self-cleavage stood at 0.707.

For A10U A60G, the self-cleavage was 0.953.

Regarding G11A A40U, the self-cleavage worked out at 0.357.

Take G11A A40G: the self-cleavage was found to be 0.726.

For the variant C9G U55A, the self-cleavage was determined as 0.929.

For C9G U44G, the self-cleavage amounted to 0.96.

With C9U C54U, the self-cleavage is 0.988.

In the case of C9U C12G, the self-cleavage worked out at 0.976.

As to C9U C12U, the self-cleavage was determined as 1.01.

C9U C12A: the self-cleavage was 0.785.

Turning to A10G G41C, the self-cleavage was 0.326.

Take A10G G41A: the self-cleavage is 0.37.

Take C9U U36A: the self-cleavage worked out at 0.312.

As for C9U U36C, the self-cleavage came out at 1.02.

In the case of G11A A60C, the self-cleavage came to 0.205.

In the case of A10G C35G, the self-cleavage amounted to 0.496.

Take A10G C35U: the self-cleavage stood at 0.892.

With A10G C35A, the self-cleavage amounted to 0.197.

For the variant A10U U62A, the self-cleavage turned out to be 0.882.

Take A10U U62C: the self-cleavage is 0.757.

In the case of C9U G68C, the self-cleavage was determined as 1.03.

In the case of A10C C54A, the self-cleavage was 0.896.

As to A10C C54G, the self-cleavage is 0.993.

A10C C54U: the self-cleavage is 1.02.

Regarding C9U C32U, the self-cleavage worked out at 1.02.

Take A10G G50A: the self-cleavage turned out to be 0.949.

For G11A A59G, the self-cleavage was 0.859.

With G11A A59C, the self-cleavage was found to be 0.3.

As for A10C G41A, the self-cleavage was determined as 0.824.

In the case of A10C G41U, the self-cleavage came out at 0.826.

Turning to A10C G41C, the self-cleavage is 0.798.

As to A10C C27G, the self-cleavage was 0.0915.

For the variant A10C G28C, the self-cleavage came out at 0.102.

For C9U G25A, the self-cleavage was found to be 0.306.

A10G C22A: the self-cleavage was found to be 0.141.

In the case of C9U G17C, the self-cleavage was determined as 0.32.

Consider C9U G17U, for which the self-cleavage came out at 0.832.

Take C9U A59C: the self-cleavage amounted to 0.877.

With C9U A59U, the self-cleavage turned out to be 0.888.

For the variant A10U G56U, the self-cleavage stood at 0.984.

For the variant A10U G56A, the self-cleavage came to 1.01.

For A10C U38A, the self-cleavage was found to be 0.869.

Turning to A10C U38G, the self-cleavage was 0.248.

As for C9U U21A, the self-cleavage is 0.932.

As for C9U U21G, the self-cleavage stood at 0.801.

In the case of C9G U36A, the self-cleavage amounted to 0.256.

Regarding A10U A15C, the self-cleavage turned out to be 0.746.

On to A10C G48C, for which the self-cleavage amounted to 0.992.

As to A10C G48U, the self-cleavage amounted to 1.02.

A10U U26G: the self-cleavage was determined as 0.994.

As to A10U C34U, the self-cleavage is 0.985.

On to A10G G37A, for which the self-cleavage was 0.219.

Turning to A10G G37U, the self-cleavage came to 0.11.

Turning to C9G U46G, the self-cleavage is 1.

Consider C9G U46C, for which the self-cleavage worked out at 0.937.

On to A10U G50U, for which the self-cleavage was found to be 0.978.

Turning to G11A A15C, the self-cleavage amounted to 0.849.

As for C9G G56C, the self-cleavage amounted to 0.924.

For the variant C9G G56A, the self-cleavage was 1.01.

For the variant C9G G56U, the self-cleavage came out at 0.97.

Take A10G C29U: the self-cleavage was determined as 0.126.

A10G C29A: the self-cleavage is 0.324.

Turning to A10G A52G, the self-cleavage was determined as 1.01.

As for A10C G58A, the self-cleavage came to 0.961.

On to A10U C45G, for which the self-cleavage came out at 0.949.

Take C9U C29U: the self-cleavage worked out at 0.874.

On to A10G A60U, for which the self-cleavage turned out to be 0.221.

As for A10G A60C, the self-cleavage turned out to be 0.176.

Regarding A10U A42C, the self-cleavage was 0.937.

On to A10G G30U, for which the self-cleavage is 0.704.

For the variant A10G G30A, the self-cleavage was 0.96.

Take A10U G14U: the self-cleavage was determined as 0.654.

As to A10U U43C, the self-cleavage came out at 0.975.

In the case of A10U U43G, the self-cleavage amounted to 0.831.

For A10U U43A, the self-cleavage came out at 0.941.

As for A10C C45G, the self-cleavage came out at 1.05.

With A10C G25U, the self-cleavage was 0.0666.

Consider G11A C27U, for which the self-cleavage is 0.107.

In the case of G11A C27G, the self-cleavage amounted to 0.139.

As to G11A C27A, the self-cleavage was determined as 0.2.

A10U U67A: the self-cleavage worked out at 0.997.

A10U U67G: the self-cleavage worked out at 1.01.

In the case of A10G G28C, the self-cleavage was determined as 0.169.

For the variant A10C C63G, the self-cleavage was 0.629.

A10C U21C: the self-cleavage amounted to 0.905.

Regarding A10C U21G, the self-cleavage came to 0.535.

Turning to C9U A15U, the self-cleavage was found to be 0.931.

On to C9U A15G, for which the self-cleavage worked out at 1.05.

With C9U A60U, the self-cleavage turned out to be 0.538.

Consider C9G U49A, for which the self-cleavage was 1.

On to C9G U49G, for which the self-cleavage amounted to 0.954.

Take C9G U49C: the self-cleavage stood at 1.01.

With G11A U53A, the self-cleavage was found to be 0.533.

With C9U C45G, the self-cleavage is 1.07.

G11A C66A: the self-cleavage amounted to 0.818.

On to G11A C66G, for which the self-cleavage turned out to be 0.917.

C9U A51U: the self-cleavage was 1.

Regarding C9U G30C, the self-cleavage was determined as 0.981.

As to C9U G30A, the self-cleavage came to 0.972.

In the case of G11A G25A, the self-cleavage came to 0.126.

In the case of A10G C27U, the self-cleavage stood at 0.613.

For the variant A10U C27U, the self-cleavage amounted to 0.547.

Consider A10U C27A, for which the self-cleavage is 0.272.

As for A10C G19C, the self-cleavage was determined as 0.097.

Turning to A10C G19U, the self-cleavage stood at 0.446.

As for A10G A23C, the self-cleavage came out at 0.939.

Turning to G11A A51C, the self-cleavage stood at 0.757.

In the case of A10G A40U, the self-cleavage came out at 0.301.

Consider A10G C66A, for which the self-cleavage is 0.385.

The values are drawn from the RNAGym collection of RNA variant scans (doi:10.7554/elife.80360).
